Test results published in publication PMC3210417 (Nature structural & molecular biology, 2011).

T1: Epl1 (residues 51–380, EPcA domain) of Piccolo v07 (S. cerevisiae, UniProt P43572 51-380)
T1 sequence: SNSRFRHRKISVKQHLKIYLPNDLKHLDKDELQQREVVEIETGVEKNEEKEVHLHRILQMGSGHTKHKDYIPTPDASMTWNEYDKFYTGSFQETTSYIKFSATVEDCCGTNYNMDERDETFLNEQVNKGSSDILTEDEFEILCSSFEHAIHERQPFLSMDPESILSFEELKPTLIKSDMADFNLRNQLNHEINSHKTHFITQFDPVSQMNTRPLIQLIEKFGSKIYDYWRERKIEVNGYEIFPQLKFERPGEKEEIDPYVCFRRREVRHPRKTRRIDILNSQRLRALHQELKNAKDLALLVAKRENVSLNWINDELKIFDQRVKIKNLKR


Experiments:
[1] = target: recombinant nucleosome core particle formed from full-length Xenopus recombinant histones and mouse (Xenopus); assay: negative-stain EM of single particles
[2] = target: T1, Epl1 (residues 51–380, EPcA domain) of …; assay: AUC

Row | stoichiometry N [2] | Molecule | percent of NuA4 particles bound to NCP [1] [%] | stoichiometry N [1]
1 |  | NuA4 histone acetyltransferase complex (from UniProt P43572;Q08649;P38806;Q06337;P38811;Q12432;P39995;P53911;P53201;P53930;P60010;P80428;P47128) | 5 | 1
2 | 1 | Esa1 (residues 2–445), 6 × His-tagged, of Piccolo v07 (enzyme) SHDGKEEPGIAKKINSVDDIIIKCQCWVQKNDEERLAEILSINTRKAPPKFYVHYVNYNKRLDEWITTDRINLDKEVLYPKLKATDEDNKKQKKKKATNTSETPQDSLQDGVDGFSRENTDVMDLDNLNVQGIKDENISHEDEIKKLRTSGSMTQNPHEVARVRNLNRIIMGKYEIEPWYFSPYPIELTDEDFIYIDDFTLQYFGSKKQYERYRKKCTLRHPPGNEIYRDDYVSFFEIDGRKQRTWCRNLCLLSKLFLDHKTLYYDVDPFLFYCMTRRDELGHHLVGYFSKEKESADGYNVACILTLPQYQRMGYGKLLIEFSYELSKKENKVGSPEKPLSDLGLLSYRAYWSDTLITLLVEHQKEITIDEISSMTSMTTTDILHTAKTLNILRYYKGQHIIFLNEDILDRYNRLKAKKRRTIDPNRLIWKPPVFTASQLRFAW |  | 
3 | 1 | Yng2 (residues 2–218, without PHD domain) of Piccolo v07 (domain or fragment) DPSLVLEQTIQDVSNLPSEFRYLLEEIGSNDLKLIEEKKKYEQKESQIHKFIRQQGSIPKHPQEDGLDKEIKESLLKCQSLQREKCVLANTALFLIARHLNKLEKNIALLEEDGVLAPVEEDGDMDSAAEASRESSVVSNSSVKKRRAASSSGSVPPTLKKKKTSRTSKLQNEIDVSSREKSVTPVSPSIEKKIARTKEFKNSRNGKGQNGSPENEE |  | 
